B1: XLF^1–224 (domain or fragment)
chain: MEELEQGLLMQPWAWLQLAENSLLAKVFITKQGYALLVSDLQQVWHEQVDTSVVSQRAKELNKRLTAPPAAFLCHLDNLLRPLLKDAAHPSEATFSCDCVADALILRVRSELSGLPFYWNFHCMLASPSLVSQHLIRPLMGMSLALQCQVRELATLLHMKDLEIQDYQESGATLIRDRLKTEPFEENSFLEQFMIEKLPEACSIGDGKPFVMNLQDLYMAVTTQ
B2: XRCC4^1–157 (domain or fragment)
chain: MERKISRIHLVSEPSITHFLQVSWEKTLESGFVITLTDGHSAWTGTVSESEISQEADDMAMEKGKYVGELRKALLSGAGPADVYTFNFSKESCYFFFEKNLKDVSFRLGSFNLEKVENPAEVIRELICYCLDTIAENQAKNEHLQKENERLLRDWND

Key:
crystal structure = molecular target: the molecule itself; experiment: crystal structure
XLF wild-type = XLF wild-type (human, UniProt Q9H9Q4 1-299); experiment: native gel or EMSA

Row | Binder | stoichiometry N (crystal structure) | binding result (XLF wild-type)
1 | B1 | 2 | –
2 | B2 | – | binds
